Laboratory results published in the Human Domainome abundance scans (Beltran et al. 2025).
± gives the uncertainty stated by the source.

Test: abundance fitness (aPCA) (normalised: wild type 0, dead -1); higher = more abundant; growth selection in yeast, the domain comes from the species named
Conditions: Homo sapiens
For “Lipoamide acyltransferase component of branched-chain alpha-keto acid dehydrogenase complex, mitochondrial D197V, P11182”, the abundance fitness was -0.728 ± 0.061.
For “Lipoamide acyltransferase component of branched-chain alpha-keto acid dehydrogenase complex, mitochondrial D197W, P11182”, the abundance fitness was -0.387 ± 0.064.
Substance “Lipoamide acyltransferase component of branched-chain alpha-keto acid dehydrogenase complex, mitochondrial D204A, P11182” has an abundance fitness of -1.24 ± 0.064.
Substance “Lipoamide acyltransferase component of branched-chain alpha-keto acid dehydrogenase complex, mitochondrial D204C, P11182” has an abundance fitness of -1.27 ± 0.098.
With “Lipoamide acyltransferase component of branched-chain alpha-keto acid dehydrogenase complex, mitochondrial D204E, P11182” the abundance fitness was -0.771 ± 0.1.
Work on “Lipoamide acyltransferase component of branched-chain alpha-keto acid dehydrogenase complex, mitochondrial D204G, P11182” yielded an abundance fitness of -0.806 ± 0.042.
Work on “Lipoamide acyltransferase component of branched-chain alpha-keto acid dehydrogenase complex, mitochondrial D204H, P11182” yielded an abundance fitness of -0.946 ± 0.16.
“Lipoamide acyltransferase component of branched-chain alpha-keto acid dehydrogenase complex, mitochondrial D204L, P11182” showed an abundance fitness of -1.26 ± 0.1.
With “Lipoamide acyltransferase component of branched-chain alpha-keto acid dehydrogenase complex, mitochondrial D204M, P11182” the abundance fitness was -1.35 ± 0.11.
In the case of “Lipoamide acyltransferase component of branched-chain alpha-keto acid dehydrogenase complex, mitochondrial D204N, P11182”, the abundance fitness is reported as -0.136 ± 0.4.
With “Lipoamide acyltransferase component of branched-chain alpha-keto acid dehydrogenase complex, mitochondrial D204P, P11182” the abundance fitness was -0.455 ± 0.06.
Substance “Lipoamide acyltransferase component of branched-chain alpha-keto acid dehydrogenase complex, mitochondrial D204Q, P11182” has an abundance fitness of -0.932 ± 0.062.
In the case of “Lipoamide acyltransferase component of branched-chain alpha-keto acid dehydrogenase complex, mitochondrial D204R, P11182”, the abundance fitness is reported as -1.07 ± 0.047.
“Lipoamide acyltransferase component of branched-chain alpha-keto acid dehydrogenase complex, mitochondrial D204S, P11182” showed an abundance fitness of -0.83 ± 0.068.
“Lipoamide acyltransferase component of branched-chain alpha-keto acid dehydrogenase complex, mitochondrial D204T, P11182” gave an abundance fitness of -0.973 ± 0.064.
Substance “Lipoamide acyltransferase component of branched-chain alpha-keto acid dehydrogenase complex, mitochondrial D204V, P11182” has an abundance fitness of -1.1 ± 0.072.
Substance “Lipoamide acyltransferase component of branched-chain alpha-keto acid dehydrogenase complex, mitochondrial E190A, P11182” has an abundance fitness of -0.093 ± 0.047.
For “Lipoamide acyltransferase component of branched-chain alpha-keto acid dehydrogenase complex, mitochondrial E190C, P11182”, the abundance fitness was -0.315 ± 0.12.
For “Lipoamide acyltransferase component of branched-chain alpha-keto acid dehydrogenase complex, mitochondrial E190D, P11182”, the abundance fitness was 0.039 ± 0.064.
In the case of “Lipoamide acyltransferase component of branched-chain alpha-keto acid dehydrogenase complex, mitochondrial E190F, P11182”, the abundance fitness is reported as -0.448 ± 0.076.
With “Lipoamide acyltransferase component of branched-chain alpha-keto acid dehydrogenase complex, mitochondrial E190G, P11182” the abundance fitness was -0.409 ± 0.038.
Work on “Lipoamide acyltransferase component of branched-chain alpha-keto acid dehydrogenase complex, mitochondrial E190H, P11182” yielded an abundance fitness of -0.086 ± 0.072.
“Lipoamide acyltransferase component of branched-chain alpha-keto acid dehydrogenase complex, mitochondrial E190I, P11182” gave an abundance fitness of -0.609 ± 0.08.
Work on “Lipoamide acyltransferase component of branched-chain alpha-keto acid dehydrogenase complex, mitochondrial E190K, P11182” yielded an abundance fitness of -0.178 ± 0.056.
“Lipoamide acyltransferase component of branched-chain alpha-keto acid dehydrogenase complex, mitochondrial E190L, P11182” gave an abundance fitness of -0.186 ± 0.042.
For “Lipoamide acyltransferase component of branched-chain alpha-keto acid dehydrogenase complex, mitochondrial E190M, P11182”, the abundance fitness was -0.147 ± 0.049.
In the case of “Lipoamide acyltransferase component of branched-chain alpha-keto acid dehydrogenase complex, mitochondrial E190N, P11182”, the abundance fitness is reported as -0.032 ± 0.047.
Substance “Lipoamide acyltransferase component of branched-chain alpha-keto acid dehydrogenase complex, mitochondrial E190P, P11182” has an abundance fitness of -0.963 ± 0.081.
Substance “Lipoamide acyltransferase component of branched-chain alpha-keto acid dehydrogenase complex, mitochondrial E190Q, P11182” has an abundance fitness of -0.069 ± 0.059.
Substance “Lipoamide acyltransferase component of branched-chain alpha-keto acid dehydrogenase complex, mitochondrial E190R, P11182” has an abundance fitness of -0.199 ± 0.04.
For “Lipoamide acyltransferase component of branched-chain alpha-keto acid dehydrogenase complex, mitochondrial E190S, P11182”, the abundance fitness was -0.079 ± 0.046.
With “Lipoamide acyltransferase component of branched-chain alpha-keto acid dehydrogenase complex, mitochondrial E190T, P11182” the abundance fitness was -0.119 ± 0.047.
“Lipoamide acyltransferase component of branched-chain alpha-keto acid dehydrogenase complex, mitochondrial E190W, P11182” gave an abundance fitness of -0.192 ± 0.046.
In the case of “Lipoamide acyltransferase component of branched-chain alpha-keto acid dehydrogenase complex, mitochondrial E190Y, P11182”, the abundance fitness is reported as -0.349 ± 0.05.
In the case of “Lipoamide acyltransferase component of branched-chain alpha-keto acid dehydrogenase complex, mitochondrial E203A, P11182”, the abundance fitness is reported as -0.041 ± 0.042.
